Laboratory results as given in article PMC7538161, “Breakage of the oligomeric CaMKII hub by the regulatory segment of the kinase” (eLife, 2020).
Values joined by “and” are separate entries in the source; they are usually repeats but may differ in a detail not shown here. Equal entries are not always repeated. Non-standard residues stand in square brackets, D forms with d. No end group written: not given here. pT = C[C@@H](OP(=O)(O)O)[C@H](N)C(=O)O

B1: Peptide A^phos (peptide)
peptide: LKKFNARRKLKGAIL[pT]TMLA
modifications: also: phosphothreonine at Thr 305
notes: also called phosphorylated Peptide A; source: bought: Elim Biopharm (lyophilized powder)
B2: Peptide G (peptide)
peptide: RSTVASCMHRQETVDCLKKFNA
notes: also called autonomy site peptide; source: bought: Elim Biopharm (lyophilized powder)
B3: human CaMKII-α hub domain (domain or fragment, UniProt Q9UQM7 345-475, looked up)
chain: VRKQEIIKVTEQLIEAISNGDFESYTKMCDPGMTAFEPEALGNLVEGLDFHRFYFENLWSRNSKPVHTTILNPHIHLMGDESACIAYIRITQYLDAGGIPRTAQSEETRVWHRRDGKWQIVHFHRSGAPSV
notes: Ca2+/calmodulin-dependent protein kinase II alpha (CaMKII-α), human, hub domain, residues 345-475 of Uniprot Q9UQM7; Forms dodecameric and tetradecameric assemblies; also called the hub; hub assembly; source: E. coli BL21, purified (Ni-NTA, PreScission cleavage, Ni-NTA flow-through, Superose 6 gel filtration); not shown: His6, N-terminal, cleaved; copies: 12 or 14
B4: Peptide H, CaMKIINTide (peptide)
peptide: KRPPKLGQIGRSKRVVIEDDRIDDVLK
notes: source: bought: Elim Biopharm (lyophilized powder)
B5: Peptide B (peptide)
peptide: AILTTMLATRNFSGGKSGGNKK
notes: as for B4
B6: Peptide A (peptide)
peptide: LKKFNARRKLKGAILTTMLA
notes: as for B4
B7: Peptide B^phos (peptide)
peptide: AIL[pT]TMLATRNFSGGKSGGNKK
modifications: also: phosphothreonine at Thr 305
notes: also called phosphorylated Peptide B; source: bought: Elim Biopharm (lyophilized powder)

What was measured:
[1] = biological target: B3; test: native MS; hub 120 µM (subunits) mixed with 1 to 100 µM phosphorylated peptide, ~400 mM ammonium acetate, injected at once without incubation; sample cone voltage 50 V; settings: both partners purified
[2] = biological target: B3; test: native MS; hub 120 µM (subunits) mixed with 1 µM to 1 mM unphosphorylated peptide, ~400 mM ammonium acetate, incubated 5 min at room temperature; nanoelectrospray, sample cone voltage 50 V, source 80°C; settings: both partners purified
[3] = biological target: the molecule itself; test: native MS; hub alone, 120 µM subunit concentration in 400 mM ammonium acetate, 5 min at room temperature; nanoelectrospray, sample cone voltage 50 V, source 80°C

binding result [2]	Binder	other results
–	B1	binding result [1]: binds
binds	B2	–
–	B3	stoichiometry N [3]: 12 and 14
binds	B4	–
binds	B5	–
binds	B6	–
–	B7	binding result [1]: binds
